Values joined by “and” are separate entries in the source; they are usually repeats but may differ in a detail not shown here. Equal entries are not always repeated.
B1: Lynx/AP fusion protein (other)
chain: LECHVCAYNGDNCFKPMRCPAMATYCMTTRTYFTPYRMKVRKSCVPSCFETVYDGYSKHASATSCCQYYLCN
notes: It was used as conditioned medium of transfected 293T cells; also called Lynx1-alkaline phosphatase (AP) fusion; Lynx/AP supernatant; not shown: secreted human placental alkaline phosphatase from the APtag-4 vector

Legend:
[1] = biological target: chicken α4β2 nicotinic acetylcholine receptor expressed in Xenopus oocytes (chicken) (UniProt P09482); test: cell-based or functional assay
Sequence of chicken α4β2 nicotinic acetylcholine receptor expressed in Xenopus oocytes (chicken) (P09482 24-622, chain 1 of 2): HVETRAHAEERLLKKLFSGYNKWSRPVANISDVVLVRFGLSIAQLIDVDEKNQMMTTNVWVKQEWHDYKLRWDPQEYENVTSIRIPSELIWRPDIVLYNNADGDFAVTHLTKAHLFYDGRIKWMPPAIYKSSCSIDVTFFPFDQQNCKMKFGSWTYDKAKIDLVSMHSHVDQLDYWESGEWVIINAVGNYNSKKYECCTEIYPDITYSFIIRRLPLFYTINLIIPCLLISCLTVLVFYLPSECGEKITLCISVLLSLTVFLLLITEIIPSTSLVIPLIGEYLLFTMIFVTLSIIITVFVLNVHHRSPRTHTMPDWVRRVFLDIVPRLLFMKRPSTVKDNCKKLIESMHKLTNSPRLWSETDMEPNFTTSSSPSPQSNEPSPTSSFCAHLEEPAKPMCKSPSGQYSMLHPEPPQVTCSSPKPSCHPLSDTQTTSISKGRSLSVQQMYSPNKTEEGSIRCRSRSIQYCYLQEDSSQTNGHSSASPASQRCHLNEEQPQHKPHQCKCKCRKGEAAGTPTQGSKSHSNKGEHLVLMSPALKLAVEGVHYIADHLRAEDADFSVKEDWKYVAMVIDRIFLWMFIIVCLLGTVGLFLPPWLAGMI
Sequence of chicken α4β2 nicotinic acetylcholine receptor expressed in Xenopus oocytes (chicken) (P09484 19-491, chain 2 of 2, further chain): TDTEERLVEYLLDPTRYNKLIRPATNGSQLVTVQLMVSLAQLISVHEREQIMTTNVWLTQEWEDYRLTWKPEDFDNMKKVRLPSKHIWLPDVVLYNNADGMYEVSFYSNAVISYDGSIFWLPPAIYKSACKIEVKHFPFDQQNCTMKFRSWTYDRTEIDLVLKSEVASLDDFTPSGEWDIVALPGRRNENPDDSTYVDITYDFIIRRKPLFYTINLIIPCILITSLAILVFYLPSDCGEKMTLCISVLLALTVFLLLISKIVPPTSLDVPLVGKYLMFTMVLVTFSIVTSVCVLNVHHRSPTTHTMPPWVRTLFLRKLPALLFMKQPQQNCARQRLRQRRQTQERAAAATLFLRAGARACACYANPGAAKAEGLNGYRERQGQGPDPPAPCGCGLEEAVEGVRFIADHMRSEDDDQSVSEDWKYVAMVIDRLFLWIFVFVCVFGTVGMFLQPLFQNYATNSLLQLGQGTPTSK

[2] = biological target: T1, nAChR alpha 7 subunit (chick alpha 7 construct) expressed in 293T cells (chick, UniProt P22770 24-502); test: Far Western blot of extracts of transfected 293T cells
T1 construct: It was in the extract of transfected 293T cells, separated by SDS-PAGE and probed by Far Western
T1 sequence (P22770 24-502): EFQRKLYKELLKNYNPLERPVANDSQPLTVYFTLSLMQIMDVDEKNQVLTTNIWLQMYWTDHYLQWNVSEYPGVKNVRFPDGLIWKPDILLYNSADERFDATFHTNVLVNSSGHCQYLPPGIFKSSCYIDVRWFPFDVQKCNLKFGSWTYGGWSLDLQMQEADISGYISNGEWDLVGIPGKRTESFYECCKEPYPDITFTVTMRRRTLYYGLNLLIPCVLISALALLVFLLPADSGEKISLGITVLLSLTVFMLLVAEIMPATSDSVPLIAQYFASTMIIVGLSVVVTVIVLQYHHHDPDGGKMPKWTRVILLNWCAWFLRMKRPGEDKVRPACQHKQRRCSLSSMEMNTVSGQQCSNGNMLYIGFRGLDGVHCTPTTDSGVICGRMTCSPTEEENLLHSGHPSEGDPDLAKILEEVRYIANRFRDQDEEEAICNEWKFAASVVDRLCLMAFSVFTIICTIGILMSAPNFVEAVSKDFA
Text: Far Western Analysis. A fragment of the Lynx1 cDNA corresponding to the mature polypeptide was cloned in frame to the C-terminus of the coding sequence for the secreted human placental alkaline phosphatase (referred to as Lynx/AP). The APtag-4 vector was provided by Dr. John Flanagan (Cheng, H.-J. et al (1995) Cell 82, 371-381). Constructs were transfected into 293T cells using calcium phosphate precipitation. Conditioned media was collected and treated as described (Cheng, H.-J. et al (1995) Cell 82, 371-381): 20 μg of crude extract was electrophoretically separated and transferred to PVDF membrane (Immobilon P, Millipore). Filters were renatured as specified (Rodriguez, P. L. & Carrasco, L. (1994) Biotech. 17, 702-707), incubated overnight with equal amounts of cultured supernatants containing lynx/AP or unfused AP, washed, and treated with NBT/BCIP substrate according to manufacturer's directions (Pharmacia). To determine the relative activity of Lynx/AP protein compared to unfused AP, a dilution series of cultured supernatants was blotted onto nitrocellulose paper with a slot blot apparatus and reacted for AP activity.
The cells were harvested and lysed and cell extract was run out on an SDS-PAGE gel. […]

| Molecule | amplitude of the ACh-evoked macroscopic currents [1] | binding result [2] |
| --- | --- | --- |
| Lynx1-HA (CMV2611), column purified Lynx1 (from UniProt P0DP60 21-92) (ligand) | 30% to 40% (2×) and 35% | – |
| B1 | – | binds |

Source: patent US20100004162A1 (ROCKEFELLER UNIVERSITY, published 2010)
